Assay results reported in patent publication US8580549B2, “Esterases for separating plastics” (Henkel KGaA, priority 2005, dated 2013).

Experiments:
Format in all cases: biochemical
[1] = Titrimetric Michaelis-Menten kinetics, hydrolysis of diethyl phthalate; conditions: substrate DEP; for kcat: assumes added enzyme = active enzyme; for vMax: titrimetric, 30° C., pH 9
Procedure: (§1) The enzyme activities of the esterases were measured with the titration apparatus 702 SAT (METROHM Ltd., Switzerland) for various substrates of the phthalate family (FIG. 4). The phthalates were dissolved in diethyl ether with 0.5 g Triton X100. The diethyl ether was then removed under a stream of nitrogen. 50 ml buffer (2 mM Tris/HCl, pH 9) was added, homogenized by ultrasound and used in different final concentrations (0.3 mM to 100 mM) in a total reaction volume of 2 mL (including enzyme). The reaction buffer was pre-incubated at 30° C. for 10 minutes. After addition of the enzyme, the NaOH consumption (concentration determination by triple titration with oxalic acid) at a reaction temperature of 30° C. was plotted. One unit is defined as the enzyme activity that releases 1 μmol acid per minute.
(§2) Titrimetric measurements were carried out to determine the kinetic constants vmax, kM, kcat and kcat/kM of the three para-nitrobenzyl esterases pNB-Est17, pNB-Est19 and pNB-Est13 towards different phthalates and terephthalates. The enzyme activities were determined for different substrate concentrations and evaluated according to MICHAELIS-MENTEN (see FIGS. 5 to 7). The measured kM- and vmax values and the added enzyme concentrations were used to calculate the kinetic constants (kcat and k2) and the catalytic efficiency (kcat/kM)—under the assumption that the added enzyme concentration was the same as the concentration of the active enzyme.
(§3) The data in FIGS. 5 to 7 and Tables 5 to 7 represent mean values from three independent titrimetric measurements with a relative standard deviation of less than 5%. The calculation of kcat and kcat/kM was based on the assumption that the added enzyme concentration was the same as the concentration of the active enzyme.

[2] = Substrate specificity to para-nitrophenyl esters: p-NP-laurate; conditions: p-NP-laurate 0.8 mM, phosphate buffer pH 8, room temperature, 410 nm
Procedure: (§4) For the determination of chain length specificities of the investigated esterases, p-nitrophenyl esters with different chain lengths were used as the substrate for the spectroscopic measurements of activity. To the p-nitrophenyl esters dissolved in 10 mL isopropanol were added 90 mL phosphate buffer (pH 8, disodium hydrogen phosphate and potassium dihydrogen phosphate). The final concentration of the substrate was 0.8 mM. Each 990 μL buffer-substrate mixture was mixed with 10 μL of the enzyme sample and incubated at room temperature for one minute. The increase in absorption at 410 nm was then measured (UV MC^2, SAFAS, Monaco). The enzyme activity was calculated using a molar extinction coefficient of 17100 [M^−1cm^−1], wherein 1 unit was defined as the quantity of enzyme that released 1 μmol p-nitrophenol per minute.
(§5) The data in Table 3 represent mean values from three independent measurements with a relative standard deviation of less than 10%.

[3] = Substrate specificity to para-nitrophenyl esters: p-NP-myristate; conditions: p-NP-myristate 0.8 mM, phosphate buffer pH 8, room temperature, 410 nm
Procedure: as §4, §5

[4] = Substrate specificity to para-nitrophenyl esters: p-NP-caprate; conditions: p-NP-caprate 0.8 mM, phosphate buffer pH 8, room temperature, 410 nm
Procedure: as §4, §5

[5] = Esterase activity by hydrolysis of bis-(p-methylbenzoic acid) ester of ethylene glycol (titration); conditions: titrimetric, 30° C., tris/HCl pH 9.0; for Specific Activity / vMax: mean of three measurements
Procedure: 2.4.2 Determination of the Enzymatic Activity
The cleavage of the bis-(p-methylbenzoic acid) ester of ethylene glycol catalyzed by the inventive enzymes affords 2 equivalents of 4-methylbenzoic acid and ethylene glycol (see FIG. 2).
For the preparation of the enzyme assay, the desired amount of substrate was mixed with 0.5 g Triton X100 and dissolved with heating in 50 mL ethanol (99%, denatured). Once all the substrate was dissolved, the solution was added to 50 mL buffer (2 mM tris/HCl buffer; pH 9.0) with intense stirring by Ultra-Turrax. This solution was then stirred at room temperature for at least 12 hours in order to remove a large part of the added ethanol. The thus-prepared substrate solution was immediately titrated. The reaction buffer was pre-incubated at 30° C. for 10 minutes.
Different final concentrations (0.67 mM to 50 mM) were used in a total reaction volume of 2 mL including enzyme. After addition of the enzyme, the NaOH consumption (concentration determination by triple titration with oxalic acid) with the titration apparatus 702 SAT (METROHM Ltd., Switzerland)) at a reaction temperature of 30° C. was plotted. One unit is defined as the enzyme activity that releases 1 μmol acid per minute.
In this and the subsequent examples, the following abbreviations are used for the tested esterases: enzyme according to Seq ID No. 12 (pNB-Est13), enzyme according to Seq ID No. 2 (pNB-Est19), enzyme according to Seq ID No. 1 (pNB-Est17). The data obtained for the cited esterases in Table 2 were determined by titrimetric measurements and represent mean values from: three independent measurements with a relative standard deviation of less than 5%.

[6] = Substrate specificity to para-nitrophenyl esters: p-NP-caproate; conditions: p-NP-caproate 0.8 mM, phosphate buffer pH 8, room temperature, 410 nm
Procedure: as §4, §5

[7] = Substrate specificity to para-nitrophenyl esters: p-NP-stearate; conditions: p-NP-stearate 0.8 mM, phosphate buffer pH 8, room temperature, 410 nm
Procedure: as §4, §5

[8] = Titrimetric Michaelis-Menten kinetics, hydrolysis of dimethyl terephthalate; conditions: substrate DMT; for kcat: assumes added enzyme = active enzyme; for vMax: titrimetric, 30° C., pH 9
Procedure: as §1, §2, §3

[9] = Titrimetric Michaelis-Menten kinetics, hydrolysis of diethyl terephthalate; conditions: substrate DET; for kcat: assumes added enzyme = active enzyme; for vMax: titrimetric, 30° C., pH 9
Procedure: as §1, §2, §3

[10] = Substrate specificity to para-nitrophenyl esters: p-NP-caprylate; conditions: p-NP-caprylate 0.8 mM, phosphate buffer pH 8, room temperature, 410 nm
Procedure: as §4, §5

[11] = Substrate specificity to para-nitrophenyl esters: p-NP-palmitate; conditions: p-NP-palmitate 0.8 mM, phosphate buffer pH 8, room temperature, 410 nm
Procedure: as §4, §5

[12] = Titrimetric Michaelis-Menten kinetics, hydrolysis of dimethyl phthalate; conditions: substrate DMP; for kcat: assumes added enzyme = active enzyme; for vMax: titrimetric, 30° C., pH 9
Procedure: as §1, §2, §3

[13] = Titrimetric Michaelis-Menten kinetics, hydrolysis of dimethyl isophthalate; conditions: substrate DMIP; for kcat: assumes added enzyme = active enzyme; for vMax: titrimetric, 30° C., pH 9
Procedure: as §1, §2, §3

[14] = Substrate specificity to para-nitrophenyl esters: p-NP-butyrate; conditions: p-NP-butyrate 0.8 mM, phosphate buffer pH 8, room temperature, 410 nm
Procedure: as §4, §5

[15] = Titrimetric Michaelis-Menten kinetics, hydrolysis of dibutyl phthalate; conditions: substrate DBP; for kcat: assumes added enzyme = active enzyme; for vMax: titrimetric, 30° C., pH 9
Procedure: as §1, §2, §3

B1: pNB-Est13: para-nitrobenzyl esterase, enzyme according to Seq ID No. 12, Bacillus licheniformis DSM13 (gi 52346943) (protein, listed as Bacillus licheniformis)
chain: MYDTTVETRFGKLKGRAENGVRIFKGVPYAKPPVGDLRFREPQRMEAWEGELDAFQFGPVCPQPDGVLPESAGVQKSEDCLYLNVYAPEEADGDLPVMVWIHGGAFYRGAGSEPLYDGTQLAKQGKVIVVTINYRLGPFGFLHLSSIDDSYSSNLGLLDQIAALEWVKDNIAFFGGDRHHITVFGESAGSMSIASLLAMPKAKGLFQQAIMESGASATMSDKLAKAAAERFLRILDIDHHHLERLHDVSDQELLEAADQLRTLMGENIFELIFLPALDEKTLPLKPEVAVAKGAAKEINLLIGTNRDEGVLFFPSDSDLLPESKINEILEEYMGKEAAEAASSLYPRSLEGHVDMMTDLIFWHPSVVFASAQSRYASVFMYRFDWHADSEQPPFNKAAHGLEIPFVFGNMDILEQLTGTKAGEEAQLLAEQIQAAWVSFARSGNPSTDDVSWPDYDEDSRKTLIFDQEVAVESDPYSDKRKMLTAPNPQI
kcat [1]: 10468 s⁻¹ | vMax [1]: 3.21 U/mg | Specific Activity [2]: 1.3 U/mg | Specific Activity [3]: <1 U/mg | Specific Activity [4]: 4.4 U/mg | kcat [5]: 9358 s⁻¹ | Specific Activity [5]: 2.87 µmol/min/mg | vMax [5]: 1.801 µmol/min | Specific Activity [6]: 50.5 U/mg | Specific Activity [7]: <1 U/mg | kcat [8]: 14784 s⁻¹ | vMax [8]: 4.53 U/mg | kcat [9]: 12574 s⁻¹ | vMax [9]: 3.57 U/mg | Specific Activity [10]: 13.0 U/mg | Specific Activity [11]: <1 U/mg | kcat [12]: 29735 s⁻¹ | vMax [12]: 9.11 U/mg | kcat [13]: 90267 s⁻¹ | vMax [13]: 27.67 U/mg | Specific Activity [14]: 22.4 U/mg | kcat [15]: 9356 s⁻¹ | vMax [15]: 2.87 U/mg

B2: pNB-Est17: para-nitrobenzyl esterase, enzyme according to Seq ID No. 1, from Bacillus subtilis (17A1), 489 amino acids (protein, listed as Bacillus subtilis)
chain: MTHQIVTTQYGKVKGTTENGVHKWKGIPYAKPPVGQWRFKAPEPPEVWEDVLDATAYGPICPQPSDLLSLSYTELPRQSEDCLYVNVFAPDTPSQNLPVMVWIHGGAFYLGAGSEPLYDGSKLAAQGEVIVVTLNYRLGPFGFLHLSSFDEAYSDNLGLLDQAAALKWVRENISAFGGDPDNVTVFGESAGGMSIAALLAMPAAKGLFQKAIMESGASRTMTKEQAASTSAAFLQVLGINEGQLDKLHTVSAEDLLKAADQLRIAEKENIFQLFFQPALDPKTLPAEPEKAISEGAASGIPLLIGTTRDEGYLFFTPDSDVHSQETLDAALEYLLGKPLAEKAADLYPRSLESQIHMMTDLLFWRPAVAYASAQSHYAPVWMYRFDWHPKKPPYNKAFHALELPFVFGNLDGLERMAKAEITDEVKQLSHTIQSAWITFAKTGNPSTEAVNWPTYHEETRETLILDSEITIENDPESEKRQKLFPSKGE
kcat [1]: 31065 s⁻¹ | vMax [1]: 9.57 U/mg | Specific Activity [2]: 3.4 U/mg | Specific Activity [3]: <1 U/mg | Specific Activity [4]: 10.2 U/mg | kcat [5]: 5177 s⁻¹ | Specific Activity [5]: 1.60 µmol/min/mg | vMax [5]: 0.642 µmol/min | Specific Activity [6]: 102.7 U/mg | Specific Activity [7]: <1 U/mg | kcat [8]: 60028 s⁻¹ | vMax [8]: 18.52 U/mg | kcat [9]: 90998 s⁻¹ | vMax [9]: 28.06 U/mg | Specific Activity [10]: 73.2 U/mg | Specific Activity [11]: <1 U/mg | kcat [12]: 45672 s⁻¹ | vMax [12]: 14.09 U/mg | kcat [13]: 38880 s⁻¹ | vMax [13]: 11.99 U/mg | Specific Activity [14]: 196.3 U/mg | kcat [15]: 155676 s⁻¹ | vMax [15]: 48.03 U/mg

B3: pNB-Est19: para-nitrobenzyl esterase, enzyme according to Seq ID No. 2, from Bacillus licheniformis (19C5), 489 amino acids (protein, listed as Bacillus licheniformis)
chain: B2 chain
kcat [1]: 23265 s⁻¹ | vMax [1]: 7.20 U/mg | Specific Activity [2]: 4.0 U/mg | Specific Activity [3]: 1.3 U/mg | Specific Activity [4]: 3.9 U/mg | kcat [5]: 3838 s⁻¹ | Specific Activity [5]: 1.19 µmol/min/mg | vMax [5]: 0.385 µmol/min | Specific Activity [6]: 249.6 U/mg | Specific Activity [7]: <1 U/mg | kcat [8]: 50718 s⁻¹ | vMax [8]: 15.69 U/mg | kcat [9]: 99411 s⁻¹ | vMax [9]: 30.79 U/mg | Specific Activity [10]: 83.6 U/mg | Specific Activity [11]: <1 U/mg | kcat [12]: 50970 s⁻¹ | vMax [12]: 15.76 U/mg | kcat [13]: 27637 s⁻¹ | vMax [13]: 8.55 U/mg | Specific Activity [14]: 234.8 U/mg | vMax [15]: 40.69 U/mg
